Test: soluble on expression in E. coli; label from the status in PepcDB or PDB records

Row | Sequence | soluble on expression in E. coli
1 | MATKSVLMLGSGFVTRPTLDVLTDSGIKVTVACRTLESAKKLSAGVQHSTPISLDVNDDAALDAEVAKHDLVISLIPYTFHATVIKSAIRQKKHVVTTSYVSPAMMELDQAAKDAGITVMNEIGLDPGIDHLYAIKTIEEVHAAGGKIKTFLSYCGGLPAPESSDNPLGYKFSWSSRGVLLALRNAASFYKDGKVTNVAGPELMATAKPYFIYPGFAFVAYPNRDSTPYKERYQIPEADNIVRGTLRYQGFPQFIKVLVDIGFLSDEEQPFLKEAIPWKEATQKIVKASSASEQDIVSTIVSNATFESTEEQKRIVAGLKWLGIFSDKKITPRGNALDTLCATLEEKMQFEEGERDLVMLQHKFEIENKDGSRETRTSSLCEYGAPIGSGGYSAMAKLVGVPCAVAVKFVLDGTISDRGVLAPMNSKINDPLMKELKEKYGIECKEKVVA | soluble
2 | MGHHHHHHSHMCVARVYHGWLFEGLGRDKAEELLQLPDTKVGSFMIRESETKKGFYSLSVRHRQVKHYRIFRLPNNWYYISPRLTFQCLEDLVNHYSEVADGLCCVLTTPCLTQSTAAPAVRASSSPVTLRQKTVDWRRVSRLQEDPEGTENPLGVDESLFSYGLRESIASYLSLTSEDNTSFDRKKKSISLMYGGSKRKSSFFSSPPYFED | soluble
3 | MPYKNILTLISVNNDNFENYFRKIFLDVRSSGSKKTTINVFTEIQYQELVTLIREALLENIDIGYELFLWKKNEVDIFLKNLEKSEVDGLLVYCDDENKVFMSKIVDNLPTAIKRNLIKDFCRKLS | soluble
4 | MGLHRLIYLSCATDGLSYPDLRDIMAKSEVNNLRDGITGMLCYGNGMFLQTLEGDRQKVSETYARILKDPRHHSAEIVEFKAIEERTFINWSMRLVQLGEMDSDTIRRLRLKYSPAATFQPRSMTAEQCFRFLKELYDMSQGS | soluble
5 | MGSDKIHHHHHHMQPMDAEVLRILRKNNKSQDWGKINKKLHPKIVKYVDGKPVYQFFDTLNDNSFEKNGQLISIRTQPVNSFVPYHVHNYVEMMVVLSGRCVIKTQSESITLIQDEIMIIGCKTIHKIKPINDETIVVEIALKRTAFSLRDLTFLTHSRDAQSVSSTVFFLLSNDDSYGAFNVFHTQHDVNVVNKVNNIIREYYRPDNYSNQVIKFKILELFIRLVRLASKGPILQTQKEDHKNNEVDALTLLLYIEKNYKTVTLKSMAKHFKFHPNYLSSILKRKTGYTFIKLVHLQRINVAAEYLSLTDISIESISLAVGYEDPSCFYKIFRNHMGCSPREYRQRQAA | not soluble
6 | MMRGGMGNMNNMMKQMQKMQKDMAKAQEELGEKTVEGTAGGGMITVIANGHKQILEVKIKEEVVDPEDIEMLQDLVLAATNDALKKADELSNSTMGKFTKGLNLPGGMF | not soluble
7 | PDVSALDEVVVEAYGSKTRKITTTGAVTSVDVATLQTPATSLANMLGGRVAGIISTQGSGEPGKNISDFWIRGIGTFGANASALVLIDGLEGSLNDVDPADIESFSVLKDASATAMYGVRGANGVVLVTTKRGKQEK | not soluble
8 | MASLAKNLKNVTPNVRRAVVTWDKAERIQRNEEIFKNSESVVHRLPEHYKTRYWETILSDKTPVHYRPPTSRFAHDSFKNVEIELEENPIIGIRTPEGDDGLWGGERVVKGWIESAPYTKKKILPRYWVPKLFFPALKNVVLYSEILDKYIKVTVTERAMRLIDEHFGLDYYILESKEIDLDSKFANSLKREMLLTLTTESYYEENDEKKAYIKEKYADFVIPEREAEWIGLELNEAARKQQDMEDSTAPEPLKYKFEQSLLERLRDGTDEISQELENPEAPMKTESKFGDKMFGKYLNPIGKKLRSATN | not soluble
9 | MGSDKIHHHHHHMTAATSVRAQAREEDLSVKEILDSRWFQPEMFKTLDYVKGFVGAKVIFQMLKLGVFDDLLAGKTLEEIASGRSLDPYLLRTVFEYLSVEGLLVKEGRGGGASFRLSDYGSRIKHYEGWFNILIGGYDNIFSNIGAMLEEGIGGYKRDGKWVGVGSCQISKYDTIPITKAFIESVKPDAKQIVDFGCGNALYLCTLAKELGDIKAVGIEPDTSAYEAGLKKVAEMGLQDQVRLVNVDALDYEIDEQPDFILFGFVLQEIIAQIGRPAFIEYLRKLGRKFADSYLMVMEVDYDIDNREVMHSPMGRGYYNPYFLLHPFTNQLLLPKREWDEIFAQAGYDVVRDEVTSPKADPSGFGICYVLKYRGAHC | not soluble
10 | MGLKKCGLNLSRDNKELKPHGTIDFPCAGYSSCYRDSEDDIIPWHWHPELEILYIKSGNLKLKLPEKTFHLTPGDGFIVNSNVLHYAVAEPLCELHSIVFSPLLITGWEGSVFAEKYIGPLVRCPSFDGCSLNCLFPEPEMFENLFTAAFHALAEDLPGYEFTLREALSKLCYALCLRFGPETGDDCPAPSPDAERLRRMLDYIHCHYSEPLKLSQIAEAADIGERECLRCFSRMIQVSPIQYLLKYRVNQSASLLLREPGKNITAIAGGCGFDSPGNFSRIFKRYYKCSPKEYRSRNKE | soluble
11 | MADHSIQGKVALIAGGAKNLGGLIARDLAAHGARAIAIHYNSPASKADADATVAALQAAGAQAVALQGDLTTAAAVEKLYADALAAVGRPDIAINTVGKVLKKPFSEISEAEYDEMAAVNAKSAFFFLKEAGRHVNDHGKIVTLVTSLLGAFTPFYSAYAGTKAPVEHYTRAAAKEFGARGISVTAVGPGPMDTPFFYGQESPEAVAYHQSAAALSPHSPTGLTHIEDVVPFIRHLVSDGWWITGQTLLINGGYTTK | not soluble
12 | MSLEYNDVVEAVISALKKAHTELPEDVVTAIKKAYDSEENDIAKRNLEAILKNIEAAKKLGVPMCQDTGIPVFFVEVGRELCLDFDLKEAIVEGVRKATAEIPLRPNAVHPITRENSGDNTGLGIPQINVELVKGDELRMVVMPKGAGSENVSALKMMLPTQVDKIKDFVVETVKNAGGKPCPPIFVGVGVGSTFDGAAKLAKKALLRNVLEMNDFELELLEAVNELGIGAMGLGGKYTALAVLVEFGHCHTASLPVAVNIQCWANRRAEVVLREGGSHHHHHH | soluble
13 | RPVREVGMYNMAMLMRSTGQSSFGQSVRIAENFLNEFPRSSHREQMAAILVESYFTGKDYNSSLRSIQKIAQPTASILAAKQFVLNRMAEQKEAAGYDSEALSFVSSSISMGNKGEYFPEAYFLRGNLRYRAGDFPTAAADYRAYISAAGDRDAANLPLGYYRLGYSLFNAERYDMALEAFKEYVSRSGIAPNLSADAYARIGDCRYMKRDFHGAREAYSMAYRVYPSGGDYALLRRARLEGLAKQYADQIQTLDKLIREFPDSRHLTAALYEKGCGAVLSGKHNVAEEAFNAVVKRSPDSREARQSSLQLGLLYYNTGRTKEAIRTYQRIIDRYPRSEETTVALSDLRSIYLEEDRIDEYSTYVRGLKDKVSIAPSETEQLGFLSAERKYRRRQPDARRDLEAYLERYPQGSDRHKAELYLADLDYQAGNADAAYNRYSRLVNSPGLPEDYKIDARLRLGRMQYERKEYKAALQSFQSVLDTDGAEAVRDQAVQGVTESAYADKDYRRVIDVIAGLKNQAALPHTLRLYRAKSYQALKMNREAIADYELLAEDFSTATGAEAVVMQAQLEMEAKRLSKAKSILEKFIAKSTPQQYWLARGFILLSDIYKKEGDTFTARQYLESLEKNYPNHEDDIHEQIAQRLE | not soluble
14 | MGSDKIHHHHHHMAANNTITFYDLALSTGATISPFVWATKYALKHKGFDLDVVPGGFTGILERTGGKTERLPAIVDDGEFVLDSWGIVEYLDAKYPDRPVLIPHESVAATLKALDNWFWNAAVGPWMFCFCQDYRDLSLPQDHEYVTHSREKMLGRKLEEVQAGREERLPKISAALEPLRAALAQHQWLGGSSPNYADYRIMGGILFTASVCKTPVLANDDPLRDWIERCLDLYGGLGRHPGLFPLFGLEQREGDPDLFNRAAGQGGIYKRNTGPESTRAETQRITEGMKK | not soluble
15 | NSDSMILVTVNPKTKKTTMTSLERDTLTTLSGPKNNEMNGVEAKLNAAYAAGGAQMAIMTVQDLLNITIDNYVQINMQGLIDLVNAVGGITVTNEFDFPISIAENEPEYQATVAPGTHKINGEQALVYARMRYDDPEGDYGRQKRQREVIQKVLKKILA | not soluble
16 | MGSDKIHHHHHHMKDSFRTIYNGASVPLAEIPPVDINEFLQGILDSVDRGWRIVSYFGIPAPSSTALVCILANKAEGRLAAARTETSDSHVPSLSSLITQVQLFEREIAEQCGLIFDGHPWFKPVRFHHSFVPGRDAWDRTADEPLRVGVMDYYQVAGDEVHEVAVGPVHAGIIEPGHFRFQCHGEEVFHLEISLGYQHRGIEAGLAGGPHPRTLQVMETAAGDTTIGHGQAYCMIMESLGGIKAPPRAEVLRGIALELERLANHTGDLGAIAGDVGYLPTSSFCGRIRGDFLNMTAVLCGSRFGRGLLVPGGTIFDLTPGLRDDLLKRLAEARRDLTNAIELLWSSPSVMGRLEGTGTLTREQALELGLVGPAARACGIKRDVRLDYPFGIYRMTHLPVATVFHGDVCARTMIRWLEAQKSMDFIEEQLRQLPGGGHRVATAPCAGGRLAVALTEGWRGEICHVAVTDDAGRFSRYKIVDPSFHNWQGLALALRGQQISDFPLCNKSFNLSYCGFDL | not soluble
17 | MPVHSRGDKKETNHHDEMEVDYAENEGSSSEDEDTESSSVSEDGDSSEMDDEDCERRRMECLDEMSNLEKQFTDLKDQLYKERLSQVDAKLQEVIAGKAPEYLEPLATLQENMQIRTKVAGIYRELCLESVKNKYECEIQASRQHCESEKLLLYDTVQSELEEKIRRLEEDRHSIDITSELWNDELQSRKKRKDPFSPDKKKPVVVSGPYIVYMLQDLDILEDWTTIRKAMATLGPHRVKTEPPVKLEKHLHSARSEEGRLYYDGEWYIRGQTICIDKKDECPTSAVITTINHDEVWFKRPDGSKSKLYISQLQKGKYSIKHS | soluble
18 | MGSDKIHHHHHHMKYRRIKGTNDIFGEEIWYWRYVEETFRNVCESAGIEEIRTPIFEQTELFVRSVGEESDIVQKEMYTFQDKAGRSITLRPEGTAPVVRAFLENSLIDRGFQQRYYYIGPMFRYEKPQSGRLRQFHQVGFEIIGPESPKADFEVIMLVDTFLRRLGLTKYKIHLNSIGCPVCRKNYREALKEYYGRILDNLCDDCKRRYETNILRLLDCKVDHEYSLNAPKSVDYLCDSCRAHYKKLKEYLNTFEIEYVEDHTLVRGLDYYTRTVFEVRHEGLGAQSAIAGGGRYDGLFAELGGSSVPALGFAGGIERIILALKAEGIEIPMKNVHLVYIATLGEKAFMDGVRLAGELRKKGLSVDVDIMDRKLSGQLKHASRMGSRYAVIIGDEELEKGIVILRDLETGDQVEIDRDFAADYIAERVSKD | not soluble
19 | MGSDKIHHHHHHMSDFSPIAWTEGMFLRPQHMQQQERFLQHQQARTAKNNNPLAWGVVSYEVNYGLLPLGQFGLDRIDCVFPDNTLACLPEQSPLPTAITVPAGTLDQLVYLVLPVAKSNGMNISSSEQNQITRYSYEDHNIVDTSVGSDAMEVLQVAKLDCRLKLQSEDRSGYVSIAIARVIDVSEEGVIRLDKKFIPACIGIEHIKTLMNMTTEVTGMINQRAEAIAGRLSQSQGTSSSIADFLMLQLLNKYQPIFEHYGVVNHIHPELLFRTLISFSGELSTFSSPNKRPPKFPVYQHDNLTYVFSNTMVIVNHGLSSVLEQSATELILEKTKFGVYFSTIADKSMLDNAEFILAVKANVPHDELRQRLPSQIKIGSVETIRELVNNQLPGIGISNLPVAPRQVPYHAGYHYFQLDKNNSHWIKLKSSGGVAMHISGAYPELQIELWAVSI | not soluble

— the DeepSol protein solubility set
